Legend:
[1] = biological target: TRPV6*-del3 (TRPV6* with eight residues, 473–480, deleted in the S4–S5 linker) (rat) (UniProt Q9R186); assay: SEC; FSEC traces of purified protein following tryptophan fluorescence; elution time corresponding to the tetrameric assembly
[2] = biological target: TRPV6* (rat TRPV6 residues 1–668 with I62Y, L92N and M96Q; L495Q reverted to the native leucine) (rat) (UniProt Q9R186); assay: crystal structure; hanging drop, 20–24% PEG 350 MME, 50 mM NaCl, 50 mM Tris-HCl pH 8.0–8.5, 20 °C; also with 10 mM CaCl2 or 1 mM GdCl3; homotetramer
[3] = biological target: TRPV6* (rat TRPV6 residues 1–668 with I62Y, L92N and M96Q; L495Q reverted to the native leucine) (rat) (UniProt Q9R186); assay: SEC; FSEC traces of purified protein following tryptophan fluorescence; elution time corresponding to the tetrameric assembly
[4] = biological target: TRPV6*-del1 (TRPV6* with four residues, 477–480, deleted in the S4–S5 linker) (rat) (UniProt Q9R186); assay: as above
[5] = biological target: TRPV6_(cryst) (rat TRPV6 residues 1–668 with I62Y, L92N, M96Q and L495Q) (rat) (UniProt Q9R186); assay: crystal structure; hanging drop, 20–24% PEG 350 MME, 50 mM NaCl, 50 mM Tris-HCl pH 8.0–8.5, 20 °C; also with 10 mM CaCl2 or 1 mM GdCl3; homotetramer
[6] = biological target: TRPV6*-del2 (TRPV6* with six residues, 475–480, deleted in the S4–S5 linker) (rat) (UniProt Q9R186); assay: SEC; FSEC traces of purified protein following tryptophan fluorescence; elution time corresponding to the tetrameric assembly
[7] = biological target: TRPV6*-del4 (TRPV6* with ten residues, 471–480, deleted in the S4–S5 linker) (rat) (UniProt Q9R186); assay: as above

TRPV6*-del3 (TRPV6* with eight residues, 473–480, deleted in the S4–S5 linker) (from UniProt Q9R186 1-668)
stoichiometry N [1]: 4

TRPV6* (rat TRPV6 residues 1–668 with I62Y, L92N and M96Q; L495Q reverted to the native leucine) (from UniProt Q9R186 1-668)
stoichiometry N [2]: 4 | stoichiometry N [3]: 4

TRPV6*-del1 (TRPV6* with four residues, 477–480, deleted in the S4–S5 linker) (from UniProt Q9R186 1-668)
stoichiometry N [4]: 4

TRPV6_(cryst) (rat TRPV6 residues 1–668 with I62Y, L92N, M96Q and L495Q) (from UniProt Q9R186 1-668)
stoichiometry N [5]: 4

TRPV6*-del2 (TRPV6* with six residues, 475–480, deleted in the S4–S5 linker) (from UniProt Q9R186 1-668)
stoichiometry N [6]: 4

TRPV6*-del4 (TRPV6* with ten residues, 471–480, deleted in the S4–S5 linker) (from UniProt Q9R186 1-668)
stoichiometry N [7]: 4

From publication PMC5587609
